Data from publication doi:10.1101/2022.04.13.488184.

molecular target: Sulfolobus acidocaldarius SRP54 (Sulfolobus acidocaldarius) (UniProt O07853); assay: FRET or BRET
Sequence of UniProt O07853 (O07853 whole entry): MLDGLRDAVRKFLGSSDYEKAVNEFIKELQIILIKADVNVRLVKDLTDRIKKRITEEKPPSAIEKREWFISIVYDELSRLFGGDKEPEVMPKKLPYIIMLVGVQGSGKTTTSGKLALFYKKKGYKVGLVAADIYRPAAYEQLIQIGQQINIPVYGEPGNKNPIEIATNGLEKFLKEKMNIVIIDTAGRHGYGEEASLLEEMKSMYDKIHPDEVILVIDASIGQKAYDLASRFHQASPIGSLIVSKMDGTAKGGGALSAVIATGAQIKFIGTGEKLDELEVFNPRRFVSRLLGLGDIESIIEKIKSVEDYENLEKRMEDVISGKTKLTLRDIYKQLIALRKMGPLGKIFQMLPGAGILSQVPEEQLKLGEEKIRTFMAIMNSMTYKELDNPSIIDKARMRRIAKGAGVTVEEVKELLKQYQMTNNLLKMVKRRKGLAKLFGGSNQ

Kd [nM]	Substance
75	FtsYΔαN1 (Tyr87-Ser369) (from UniProt P27414 87-369) (domain or fragment)
272	FtsYΔαN3 (Gly129-Ser369) (from UniProt P27414 129-369) (domain or fragment)
114	FtsYΔαN2 (Ser109-Ser369) (from UniProt P27414 109-369) (domain or fragment)
